Patent US20160083473A1 (NUMAB THERAPEUTICS, published 2016)

T1: human heterodimeric single-chain CD3γδ extracellular domain (produced in-house) (human)
T1 chain 1: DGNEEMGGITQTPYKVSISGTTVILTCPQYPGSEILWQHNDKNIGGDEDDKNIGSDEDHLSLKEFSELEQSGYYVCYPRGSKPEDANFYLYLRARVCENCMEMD
T1 chain 2: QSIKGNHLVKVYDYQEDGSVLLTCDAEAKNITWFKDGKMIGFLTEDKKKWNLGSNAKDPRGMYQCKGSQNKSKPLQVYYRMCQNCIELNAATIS

T2: mouse IL23R Fc chimera (R&D Systems, Cat. No. 1686-MR-050) (mouse, UniProt Q8K4B4 24-372)
T2 construct: bought; Fc part of the bought chimera not given
T2 sequence (looked up): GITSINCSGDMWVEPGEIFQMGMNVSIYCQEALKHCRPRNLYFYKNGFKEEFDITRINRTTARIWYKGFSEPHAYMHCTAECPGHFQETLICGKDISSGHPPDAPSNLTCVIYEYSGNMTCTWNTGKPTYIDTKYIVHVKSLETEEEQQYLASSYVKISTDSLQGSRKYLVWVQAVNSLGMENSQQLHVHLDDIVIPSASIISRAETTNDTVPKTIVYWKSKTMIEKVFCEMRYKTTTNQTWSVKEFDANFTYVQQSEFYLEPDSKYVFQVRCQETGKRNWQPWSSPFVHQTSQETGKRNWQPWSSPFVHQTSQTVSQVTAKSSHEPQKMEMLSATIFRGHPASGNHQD

T3: cynomolgus IL23R Fc chimera (cynomolgus monkey, UniProt G7NWY5 24-353)
T3 construct: source of the cynomolgus chimera is not clearly stated; also called cyno IL23R; not shown: Fc part of the chimera
T3 sequence: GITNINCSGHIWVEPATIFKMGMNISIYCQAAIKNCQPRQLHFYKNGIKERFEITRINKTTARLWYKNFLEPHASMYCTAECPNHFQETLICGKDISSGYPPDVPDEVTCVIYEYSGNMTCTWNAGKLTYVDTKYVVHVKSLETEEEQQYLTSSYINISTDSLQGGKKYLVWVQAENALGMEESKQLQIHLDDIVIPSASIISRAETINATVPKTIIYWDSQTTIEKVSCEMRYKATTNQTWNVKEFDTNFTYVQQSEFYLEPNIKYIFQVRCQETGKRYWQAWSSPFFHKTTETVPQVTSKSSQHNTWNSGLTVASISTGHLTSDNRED

B1: PRO165, bispecific anti-IL23R x CD3ε single-chain diabody (bispecific antibody)
chain: DIQMTQSPSSLSASVGDRVTITCQASENIYSFLAWYQQKPGKAPKLLIYSASKLAAGVPSRFSGSGSGTDFTLTISSLQPEDFATYYCQQTNRYSNPDIYNVFGQGTKLTVLGGGGGSEVQLVESGGGLVQPGGSLRLSCAASGFPLSSYAMIWVRQAPGKGLEWIGMILRAGNIYYASWVKGRFTISRDNSKNTVYLQMNSLRAEDTAVYYCARRHYNREGYPIGIGDLWGQGTLVTVSSGGGGSGGGGSGGGGSGGGGSDIQMTQSPSSLSASVGDRVTITCQSSESVYNNKRLSWYQQKPGKAPKLLIYTASSLASGVPSRFSGSGSGTDFTLTISSLQPEDFATYYCQGEFTCSNADCFTFGQGTKLTVLGGGGGSEVQLVESGGGLVQPGGSLRLSCAASGIDFNSNYYMCWVRQAPGKGLEWIGCIYVGSHVNTYYANWAKGRFTISRDNSKNTVYLQMNSLRAEDTAVYYCATSGSSVLYFKFWGQGTLVTVSS
notes: VL(anti-IL23R 14-11-D07-sc01)-G4S-VH(anti-CD3 clone 6)-(G4S)4-VL(anti-CD3 clone 6)-G4S-VH(anti-IL23R 14-11-D07-sc01); also called scDb
B2: humanized anti-IL23R scFv 14-11-D07-sc01 (scFv, V domains shown)
VH: EVQLVESGGGLVQPGGSLRLSCAASGIDFNSNYYMCWVRQAPGKGLEWIGCIYVGSHVNTYYANWAKGRFTISRDNSKNTVYLQMNSLRAEDTAVYYCATSGSSVLYFKFWGQGTLVTVSS
VL: DIQMTQSPSSLSASVGDRVTITCQASENIYSFLAWYQQKPGKAPKLLIYSASKLAAGVPSRFSGSGSGTDFTLTISSLQPEDFATYYCQQTNRYSNPDIYNVFGQGTKLTVLG
notes: tested as a single-chain Fv; CDR graft on a Vk1/VH3 human acceptor framework

Key:
[1] = target: T1, human heterodimeric single-chain CD3γδ …; test: SPR, human single-chain CD3 ECD immobilised by amine coupling, scDb injected
[2] = target: T4, recombinant human IL23R Fc chimera (R&D Systems, Cat. No. 1400-IR-050) (human, UniProt Q5VWK5 24-353); test: SPR, IL23R Fc chimera captured by anti-human IgG Fc, scFv injected
T4 construct: bought
Description: (§1) Binding affinities of anti-IL23R scFvs were measured by surface plasmon resonance (SPR) using a MASS-1 SPR instrument (Sierra Sensors). […] After immobilization, 1 ug/ml recombinant human IL23R Fc chimera (R&D Systems, Cat. No. 1400-IR-050) was captured by the anti-human IgG antibody while a second immobilized channel served as a control where the capture was replaced by buffer. Two-fold serial dilutions of human scFvs ranging from 180 to 2.81 nM were injected into both flow cells for 3 min and dissociation of the scFvs from the chimera on the sensor chip was allowed to proceed for 700 sec. After each injection cycle, surfaces were regenerated with two 1 min injections of 10 mM glycine-HCl pH 1.5. In a similar manner the affinities for cynomolgus and mouse IL23R Fc chimera (R&D Systems, Cat. No. 1686-MR-050) was measured. The apparent dissociation (kd) and association (ka) rate constants and the apparent dissociation equilibrium constant (KD) were calculated with the MASS-1 analysis software (Analyzer, Sierra Sensors) using one-to-one Langmuir binding model.

[3] = target: T2, mouse IL23R Fc chimera (R&D Systems, …); test: as above
Description: as §1

[4] = target: T3, cynomolgus IL23R Fc chimera; test: as above
Description: as §1

Binder | Kd [1] | koff [1] | kon [1] | Kd [2] | koff [2] | kon [2] | Kd [3] | koff [3] | kon [3] | Kd [4] | koff [4] | kon [4]
B1 | 11.6 nM | 0.00126 s⁻¹ | 109000 M⁻¹ s⁻¹ |  |  |  |  |  |  |  |  | 
B2 |  |  |  | 0.116 nM | 0.000259 s⁻¹ | 2.24e+06 M⁻¹ s⁻¹ | 2.21 nM | 0.00418 s⁻¹ | 1.89e+06 M⁻¹ s⁻¹ | 0.124 nM | 0.000361 s⁻¹ | 2.92e+06 M⁻¹ s⁻¹
